Where a chain is given by its changes, count along the chain named.
T1: hAREG-EGFd-mFc (human; mouse, UniProt P15514 142-184)
T1 construct: Expressed in 293F cells; not shown: Fc fragment of mouse IgG2a
T1 chain: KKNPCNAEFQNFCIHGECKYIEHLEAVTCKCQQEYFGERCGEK

T2: hAREG-98aa (human, UniProt P15514 101-198)
T2 construct: Bought protein
T2 sequence (looked up): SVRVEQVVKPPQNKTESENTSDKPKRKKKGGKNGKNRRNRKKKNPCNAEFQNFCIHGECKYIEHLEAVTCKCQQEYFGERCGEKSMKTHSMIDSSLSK

B1: hu1H9v1 (antibody, V domains shown)
VH: EVQLVESGGGLVKPGGSLRLSCAASGFTFSGYPMSWVRQAPGKGLEWVSTISTGARHTYYPDSVKGRFTISRDNAKNSLYLQMNSLRAEDTAVYYCARHEGLRRGKYHSIMDYWGQGTLVTVSS
VL: DIVLTQSPASLAVSPGQRATITCRASESVDYDGDSFINWYQQKPGQPPKLLIYAASNKDTGVPARFSGSGSGTDFTLTINPVEAEDTANYYCHQSNEDPYMFGQGTKLEIK
notes: Humanized 1H9; captured by anti-human Fc in SPR
B2: hu1H9v4 (antibody, V domains shown)
VH: B1 VH
VL: DIQMTQSPSSLSASVGDRVTITCRASQSIDYDGDSFLNWYQQKPGKAPKLLIYAASNLQSGVPSRFSGSGSGTDFTLTISSLQPEDFATYYCQQSNEDPYVFGQGTKLEIK
notes: as for B1
B3: hu1H9v5 (antibody, V domains shown)
VH: B1 VH
VL: DIVMTQSPDSLAVSLGERATINCKSSQSIDYDGDSFLNWYQQKPGQPPKLLIYAASNRESGVPDRFSGSGSGTDFTLTISSLQAEDVAVYYCQQSNEDPYVFGQGTKLEIK
notes: as for B1
B4: hu1H9v2 (antibody, V domains shown)
VH: B1 VH
VL: B1 VL with M101L
notes: as for B1
B5: hu1H9v3 (antibody, V domains shown)
VH: B1 VH
VL: B1 VL with M101V
notes: Humanized 1H9
B6: hu23H8v1 (antibody, V domains shown)
VH: EVQLVESGGGLVKPGGSLRLSCAASGFTFNSYAMSWVRQAPGKGLEWVSTISTGGSHTYYPDSVKGRFTISRDNAKNSLYLQMNSLRAEDTAVYYCARHGYLLYDGYYEWYFDYWGQGTLVTVSS
VL: DIVLTQSPASLAVSPGQRATITCRASESVDYDGHSFINWYQQKPGQPPKLLIYAASNKDTGVPARFSGSGSGTDFTLTINPVEAEDTANYYCQQSTEDPPYTFGQGTKLEIK
notes: Humanized 23H8; captured by anti-human Fc in SPR
B7: hu23H8v3 (antibody, V domains shown)
VH: B6 VH
VL: DIVMTQSPDSLAVSLGERATINCKSSQSVDYDGHSFLNWYQQKPGQPPKLLIYAASNRESGVPDRFSGSGSGTDFTLTISSLQAEDVAVYYCQQSTEDPPYTFGQGTKLEIK
notes: as for B6
B8: hu23H8v2 (antibody, V domains shown)
VH: B6 VH
VL: DIQMTQSPSSLSASVGDRVTITCRASQSVDYDGHSFLNWYQQKPGKAPKLLIYAASNLQSGVPSRFSGSGSGTDFTLTISSLQPEDFATYYCQQSTEDPPYTFGQGTKLEIK
notes: as for B6
B9: hu23H8v6 (antibody, V domains shown)
VH: B6 VH with N30S, D62E, D105E
VL: B7 VL with D32E, D98N
notes: Humanized 23H8 variant
B10: hu23H8v4 (antibody, V domains shown)
VH: B6 VH with N30S, D62E, D105E
VL: B6 VL
notes: Humanized 23H8 variant; captured by anti-human Fc in SPR
B11: hu23H8v5 (antibody, V domains shown)
VH: B6 VH with N30S, D62E, D105E
VL: B8 VL with D32E, D98N
notes: Humanized 23H8 variant
B12: ch1H9 (antibody, V domains shown)
VH: EVKLMESGGDLVKPGGSLKLSCVASGFTFSGYPMSWVRQTPEKRLEWVATISTGARHTYYPDSVKGRFTISRDNAKNTLYLQMSSLRSEDTAMYYCARHEGLRRGKYHCIMDYWGQGTSVTVSS
VL: DILLTQSPASLAVSLGQRATISCKASQSIDYDGDSFLNWYQQKPGQPPKLLIYAASNLESGIPARFSGSGSGTDFTLNIHPVEEEDAATYYCHQCNEDPYMFGGGTKLEIR
notes: also called chimeric 1H9
B13: hu9C12v1 (antibody, V domains shown)
VH: EVQLVESGGGLVKPGGSLRLSCAASGFTFSSYPMSWVRQAPGKGLEWVSTISTGGTYTYYPDSVKGRFTISRDNAKNSLYLQMNSLRAEDTAVYYCARQGPIYYGNYYYAMDYWGQGTTVTVSS
VL: DIVMTQSPLSLPVTLGQPASISCRSSQSLVHSDGNTYLHWYQQRPGQSPKLLIYKVSNRFSGVPDRFSGSGSGTDFTLKISRVEAEDVGVYYCSQSTHVPYTFGGGTKVEIK
notes: Humanized 9C12; captured by anti-human Fc in SPR
B14: hu9C12v5 (antibody, V domains shown)
VH: B13 VH with G42E, Y103L, Y104R, G105K, A110G, Y113V
VL: B13 VL with I2V, Q17D, H31D, S32G, D33Q, G34D, N35G, S61D, G105Q, V109L
notes: Humanized 9C12 variant; captured by anti-human Fc in SPR
B15: ch9C12 (antibody, V domains shown)
VH: EVKLVESGGGLVKPGGSLKLSCAASGFTFSSYPMSWVRQTPEKRLEWVATISTGGTYTYYPDSVKGRFTISRDNAKNTLYLQMSSLRSEDTAMYYCARQGPIYYGNYYYAMDYWGQGTSVTVSS
VL: B13 VL with S7P, T14S, Q17D, P18Q, Q42L, V88L, Y92F, V109L
notes: also called chimeric 9C12
B16: ch23H8 (antibody, V domains shown)
VH: EVQLQESGGGLVKPGGSLKLSCAASGFTFNSYAMSWVRQTPEKRLEWVATISTGGSHTYYPDSVKGRFTISRDNAKNTLYLQMSSLRSEDTAMYYCARHGYLLYDGYYEWYFDVWGAGTTVTVSS
VL: DIVLTQSPASLAVSLGQRATISCKASQSVDYDGHSFLNWYQQKPGQPPKLLIYAASNLESGLPARFSGSGSGTDFTLNIHPVEEEDAATYYCQQSTEDPPYTFGGGTKLEIK
notes: also called chimeric 23H8

Molecular target: T1, hAREG-EGFd-mFc
Assay: SPR, Biacore T200; mAb captured on anti-human Fc chip, antigen in solution
Experimental: (§1) To evaluate affinities of different mouse hybridoma mAbs or their humanized and engineered variants, SPR measurement was performed using Biacore T200 instrument. mAbs were captured on anti-human Fc CM5 biosensor chip surface, hAREG-EGFd-mFc, mAREG-EGFd-mFc or hAREG-98aa (purchased from PeproTech, cat #100-55B) in serial dilutions were injected over antibody-bound surface, followed by a dissociation phase. Association rates (Ka) and dissociation rates (Kd) were calculated using the one-to-one Langmuir binding model (BIA Evaluation Software, GE Life Sciences). The equilibrium dissociation constant (KD) was calculated as the ratio kd/ka.

B1 and B2 are within 1.5-fold of each other in Kd: 0.799 nM for the first, 0.758 nM for the second.

B3 and B4 are within 1.5-fold of each other in Kd: 0.811 nM for the first, 0.762 nM for the second.

First: B5
Second: B6
The Kd of the first is 4.7-fold higher: 0.969 nM for the first, 0.205 nM for the second. The second binds more tightly here.

B7 and B8 are within 1.5-fold of each other in Kd: 0.178 nM for the first, 0.244 nM for the second.

B9 and B10 are within 1.5-fold of each other in Kd: 0.309 nM for the first, 0.336 nM for the second.

Compared with B11, B12 is 2.3-fold higher in Kd: 0.565 nM for the first, 1.31 nM for the second.

B13 and B14 are within 1.5-fold of each other in Kd: 1 nM for the first, 0.852 nM for the second.

Compared with B15, B16 is 2.3-fold lower in Kd: 1.71 nM for the first, 0.75 nM for the second.

B1 and B2 are within 1.5-fold of each other in koff: 0.000233 s⁻¹ for the first, 0.000184 s⁻¹ for the second.

B3 and B4 are within 1.5-fold of each other in koff: 0.000206 s⁻¹ for the first, 0.000229 s⁻¹ for the second.

B5 and B6 are within 1.5-fold of each other in koff: 0.000259 s⁻¹ for the first, 0.000214 s⁻¹ for the second.

B7 and B8 are within 1.5-fold of each other in koff: 0.000213 s⁻¹ for the first, 0.000249 s⁻¹ for the second.

B9 and B10 are within 1.5-fold of each other in koff: 0.000246 s⁻¹ for the first, 0.000276 s⁻¹ for the second.

Compared with B11, B13 is 1.6-fold higher in koff: 0.000348 s⁻¹ for the first, 0.000572 s⁻¹ for the second.

First: B14
Second: B15
The koff of the first is 2.4-fold lower: 0.000411 s⁻¹ for the first, 0.001 s⁻¹ for the second.

B16 showed a koff of 0.000313 s⁻¹.

B1 and B2 are within 1.5-fold of each other in kon: 291000 M⁻¹ s⁻¹ for the first, 243000 M⁻¹ s⁻¹ for the second.

B3 and B4 are within 1.5-fold of each other in kon: 254000 M⁻¹ s⁻¹ for the first, 301000 M⁻¹ s⁻¹ for the second.

Compared with B5, B6 is 3.9-fold higher in kon: 267000 M⁻¹ s⁻¹ for the first, 1.05e+06 M⁻¹ s⁻¹ for the second.

B7 and B8 are within 1.5-fold of each other in kon: 1.2e+06 M⁻¹ s⁻¹ for the first, 1.02e+06 M⁻¹ s⁻¹ for the second.

B9 and B10 are within 1.5-fold of each other in kon: 803000 M⁻¹ s⁻¹ for the first, 821000 M⁻¹ s⁻¹ for the second.

B11 and B13 are within 1.5-fold of each other in kon: 628000 M⁻¹ s⁻¹ for the first, 570000 M⁻¹ s⁻¹ for the second.

B14 and B15 are within 1.5-fold of each other in kon: 483000 M⁻¹ s⁻¹ for the first, 587000 M⁻¹ s⁻¹ for the second.

B16 gave a kon of 418000 M⁻¹ s⁻¹.

The binders below were run against T2, hAREG-98aa in the same assay as above.
Experimental: as §1

Going from B9 to B14, the Kd falls from 0.537 nM to 0.349 nM (1.5-fold).

First: B9
Second: B14
The kon of the first is 7.3-fold lower: 1.11e+06 M⁻¹ s⁻¹ for the first, 8.11e+06 M⁻¹ s⁻¹ for the second.

Work on B14 yielded a koff of 0.00283 s⁻¹.

— patent publication US20230041071A1 (NATIONAL INSTITUTE OF BIOLOGICAL SCIENCES BEIJING, published 2023)
